Laboratory results: US10500249B2, “Compositions and methods for preventing or treating diseases, conditions, or processes characterized by aberrant fibroblast proliferation and extracellular matrix deposition” (MOERAE MATRIX, INC., priority 2014, dated 2019)

Tests used:
Assay in all cases: Kinase Profiling Assay
Format in all cases: biochemical
Settings in all cases: 100 μM
CDK6/cyclinD3 (h) = target: T1, CDK6/cyclinD3 (h) (Homo sapiens, UniProt Q00534)
T1 construct: purchased Millipore
Outline: (§1)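 Specificity of MK2 inhibitory peptides is assessed against a panel of 266 human kinases. Kinase transfers a radiolabeled phosphate from ATP onto a positively charged substrate, which is trapped on a negatively charged filter and quantified by scintillation counting against full-activity control; duplicate determinations.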

Lyn (h) = Lyn (h) (Homo sapiens, UniProt P07948)
Outline: as §1

SIK (h) = SIK (h) (Homo sapiens, UniProt P57059)
Outline: as §1

GRK6 (h) = target: T2, GRK6 (h) (Homo sapiens, UniProt P43250)
T2 construct: purchased Millipore
Outline: as §1

TAK1 (h) = target: T3, TAK1 (h) (Homo sapiens, UniProt O43318)
T3 sequence (O43318 with tags, fused parts or gaps limits assumed): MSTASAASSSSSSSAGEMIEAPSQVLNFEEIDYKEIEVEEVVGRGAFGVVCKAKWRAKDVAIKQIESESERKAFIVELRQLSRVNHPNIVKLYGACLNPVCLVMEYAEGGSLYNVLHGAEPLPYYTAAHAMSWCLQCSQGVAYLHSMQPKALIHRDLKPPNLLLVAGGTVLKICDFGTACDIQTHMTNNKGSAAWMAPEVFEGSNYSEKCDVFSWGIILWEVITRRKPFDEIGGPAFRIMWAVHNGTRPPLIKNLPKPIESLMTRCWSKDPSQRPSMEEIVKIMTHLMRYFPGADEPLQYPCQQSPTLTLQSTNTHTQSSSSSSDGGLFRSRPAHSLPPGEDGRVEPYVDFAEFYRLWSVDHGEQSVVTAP
Outline: as §1

PKCθ (h) = PKCθ (h) (Homo sapiens, UniProt Q04759)
Outline: as §1

EphA7 (h) = EphA7 (h) (Homo sapiens, UniProt Q15375)
Outline: as §1

cKit(D816H) (h) = target: T4, cKit(D816H) (h) (Homo sapiens, UniProt P10721, D816H)
T4 construct: purchased Millipore
Outline: as §1

Pyk2 (h) = Pyk2 (h) (Homo sapiens, UniProt Q14289)
Outline: as §1

Txk (h) = target: T5, Txk (h) (Homo sapiens, UniProt P42681)
T5 sequence (P42681 1-527): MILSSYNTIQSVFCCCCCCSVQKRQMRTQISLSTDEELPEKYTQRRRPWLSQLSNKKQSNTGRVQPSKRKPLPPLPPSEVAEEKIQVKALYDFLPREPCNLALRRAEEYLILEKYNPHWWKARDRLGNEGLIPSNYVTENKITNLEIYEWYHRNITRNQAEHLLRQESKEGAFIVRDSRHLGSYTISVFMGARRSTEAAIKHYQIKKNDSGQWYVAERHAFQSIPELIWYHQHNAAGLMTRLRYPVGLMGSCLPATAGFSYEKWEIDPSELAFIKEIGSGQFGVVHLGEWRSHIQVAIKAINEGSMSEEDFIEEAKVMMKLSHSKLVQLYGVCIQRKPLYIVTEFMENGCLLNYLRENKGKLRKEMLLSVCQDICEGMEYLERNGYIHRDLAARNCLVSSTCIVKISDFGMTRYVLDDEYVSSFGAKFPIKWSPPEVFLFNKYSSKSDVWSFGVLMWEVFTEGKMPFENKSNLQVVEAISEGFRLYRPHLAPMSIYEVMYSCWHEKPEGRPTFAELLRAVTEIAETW
Outline: as §1

Ret (h) = Ret (h) (Homo sapiens, UniProt P07949)
Outline: as §1

WNK2 (h) = WNK2 (h) (Homo sapiens, UniProt Q9Y3S1)
Outline: as §1

TrkA (h) = TrkA (h) (Homo sapiens, UniProt P04629)
Outline: as §1

TSSK2 (h) = target: T6, TSSK2 (h) (Homo sapiens, UniProt Q96PF2)
T6 sequence (Q96PF2 1-358): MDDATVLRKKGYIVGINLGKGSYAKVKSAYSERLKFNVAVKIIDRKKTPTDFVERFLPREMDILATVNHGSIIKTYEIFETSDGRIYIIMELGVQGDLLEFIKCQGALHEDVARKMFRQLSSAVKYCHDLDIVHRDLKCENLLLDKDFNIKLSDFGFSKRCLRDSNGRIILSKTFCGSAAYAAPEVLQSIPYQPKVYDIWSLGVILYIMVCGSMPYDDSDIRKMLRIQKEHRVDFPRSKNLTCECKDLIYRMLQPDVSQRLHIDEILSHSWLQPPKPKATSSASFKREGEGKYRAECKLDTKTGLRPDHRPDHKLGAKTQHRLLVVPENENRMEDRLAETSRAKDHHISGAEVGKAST
Outline: as §1

PKCδ (h) = target: T7, PKCδ (h) (Homo sapiens, UniProt Q05655)
T7 construct: purchased Millipore
Outline: as §1

T7 sequence (Q05655 whole entry): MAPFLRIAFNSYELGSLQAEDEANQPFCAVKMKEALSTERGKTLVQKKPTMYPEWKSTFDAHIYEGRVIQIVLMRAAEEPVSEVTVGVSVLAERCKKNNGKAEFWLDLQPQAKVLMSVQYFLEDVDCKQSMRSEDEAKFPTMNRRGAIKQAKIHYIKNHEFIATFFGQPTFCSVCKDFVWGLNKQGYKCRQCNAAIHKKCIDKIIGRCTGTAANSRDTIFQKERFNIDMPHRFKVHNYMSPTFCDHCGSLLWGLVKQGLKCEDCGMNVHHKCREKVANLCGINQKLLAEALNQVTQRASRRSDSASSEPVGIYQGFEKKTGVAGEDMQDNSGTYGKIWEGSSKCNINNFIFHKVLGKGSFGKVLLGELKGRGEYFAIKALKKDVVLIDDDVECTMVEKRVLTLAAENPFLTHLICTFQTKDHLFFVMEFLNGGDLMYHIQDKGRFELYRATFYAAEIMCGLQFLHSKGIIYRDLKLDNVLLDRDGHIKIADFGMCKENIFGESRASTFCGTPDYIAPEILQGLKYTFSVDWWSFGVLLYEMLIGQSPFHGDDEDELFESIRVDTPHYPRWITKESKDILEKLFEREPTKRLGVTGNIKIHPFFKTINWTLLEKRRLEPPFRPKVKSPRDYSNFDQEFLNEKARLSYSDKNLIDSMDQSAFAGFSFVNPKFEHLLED
T1 sequence (Q00534 whole entry): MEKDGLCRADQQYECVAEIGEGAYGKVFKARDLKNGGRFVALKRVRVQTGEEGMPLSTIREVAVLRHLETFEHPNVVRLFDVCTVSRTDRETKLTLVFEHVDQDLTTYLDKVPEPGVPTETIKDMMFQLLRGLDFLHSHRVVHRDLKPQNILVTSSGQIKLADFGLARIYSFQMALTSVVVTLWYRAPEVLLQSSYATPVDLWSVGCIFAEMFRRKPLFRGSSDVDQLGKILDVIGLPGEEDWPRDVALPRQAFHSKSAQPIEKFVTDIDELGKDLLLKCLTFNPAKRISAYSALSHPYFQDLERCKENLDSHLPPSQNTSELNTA
T1 sequence (P30281 whole entry partner): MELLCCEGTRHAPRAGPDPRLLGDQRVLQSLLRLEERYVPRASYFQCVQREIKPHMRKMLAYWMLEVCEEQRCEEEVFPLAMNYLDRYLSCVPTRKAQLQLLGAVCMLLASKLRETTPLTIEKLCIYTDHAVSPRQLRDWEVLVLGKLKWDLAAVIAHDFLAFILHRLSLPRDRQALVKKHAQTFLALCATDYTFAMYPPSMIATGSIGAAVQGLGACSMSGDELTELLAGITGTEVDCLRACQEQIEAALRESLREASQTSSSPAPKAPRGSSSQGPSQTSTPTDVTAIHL
Sequence of EphA7 (h) (Q15375 28-998): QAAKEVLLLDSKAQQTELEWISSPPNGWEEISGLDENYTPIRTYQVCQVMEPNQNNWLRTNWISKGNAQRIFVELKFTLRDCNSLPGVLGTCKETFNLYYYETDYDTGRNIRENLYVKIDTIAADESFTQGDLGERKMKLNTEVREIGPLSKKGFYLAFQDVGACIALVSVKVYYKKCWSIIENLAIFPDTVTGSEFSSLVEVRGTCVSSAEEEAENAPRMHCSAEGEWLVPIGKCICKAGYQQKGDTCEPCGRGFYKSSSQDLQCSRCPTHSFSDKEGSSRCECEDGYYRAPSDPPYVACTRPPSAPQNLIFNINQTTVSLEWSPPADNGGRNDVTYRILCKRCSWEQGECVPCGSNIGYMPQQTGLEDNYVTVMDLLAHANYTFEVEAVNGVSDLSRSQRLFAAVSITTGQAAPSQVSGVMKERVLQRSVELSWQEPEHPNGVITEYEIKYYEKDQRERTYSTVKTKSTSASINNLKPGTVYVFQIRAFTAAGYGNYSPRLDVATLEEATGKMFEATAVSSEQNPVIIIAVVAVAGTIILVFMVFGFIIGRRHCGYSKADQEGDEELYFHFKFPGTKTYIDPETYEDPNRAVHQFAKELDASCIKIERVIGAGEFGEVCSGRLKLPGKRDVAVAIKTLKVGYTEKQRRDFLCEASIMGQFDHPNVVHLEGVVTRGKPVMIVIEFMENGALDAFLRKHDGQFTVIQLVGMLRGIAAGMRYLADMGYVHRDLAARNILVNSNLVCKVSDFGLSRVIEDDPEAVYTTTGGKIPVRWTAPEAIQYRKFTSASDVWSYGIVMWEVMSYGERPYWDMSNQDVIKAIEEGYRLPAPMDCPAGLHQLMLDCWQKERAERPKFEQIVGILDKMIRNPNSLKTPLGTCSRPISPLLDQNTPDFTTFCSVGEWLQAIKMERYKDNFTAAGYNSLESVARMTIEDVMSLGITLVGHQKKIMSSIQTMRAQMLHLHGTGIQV
Sequence of Pyk2 (h) (Q14289 whole entry): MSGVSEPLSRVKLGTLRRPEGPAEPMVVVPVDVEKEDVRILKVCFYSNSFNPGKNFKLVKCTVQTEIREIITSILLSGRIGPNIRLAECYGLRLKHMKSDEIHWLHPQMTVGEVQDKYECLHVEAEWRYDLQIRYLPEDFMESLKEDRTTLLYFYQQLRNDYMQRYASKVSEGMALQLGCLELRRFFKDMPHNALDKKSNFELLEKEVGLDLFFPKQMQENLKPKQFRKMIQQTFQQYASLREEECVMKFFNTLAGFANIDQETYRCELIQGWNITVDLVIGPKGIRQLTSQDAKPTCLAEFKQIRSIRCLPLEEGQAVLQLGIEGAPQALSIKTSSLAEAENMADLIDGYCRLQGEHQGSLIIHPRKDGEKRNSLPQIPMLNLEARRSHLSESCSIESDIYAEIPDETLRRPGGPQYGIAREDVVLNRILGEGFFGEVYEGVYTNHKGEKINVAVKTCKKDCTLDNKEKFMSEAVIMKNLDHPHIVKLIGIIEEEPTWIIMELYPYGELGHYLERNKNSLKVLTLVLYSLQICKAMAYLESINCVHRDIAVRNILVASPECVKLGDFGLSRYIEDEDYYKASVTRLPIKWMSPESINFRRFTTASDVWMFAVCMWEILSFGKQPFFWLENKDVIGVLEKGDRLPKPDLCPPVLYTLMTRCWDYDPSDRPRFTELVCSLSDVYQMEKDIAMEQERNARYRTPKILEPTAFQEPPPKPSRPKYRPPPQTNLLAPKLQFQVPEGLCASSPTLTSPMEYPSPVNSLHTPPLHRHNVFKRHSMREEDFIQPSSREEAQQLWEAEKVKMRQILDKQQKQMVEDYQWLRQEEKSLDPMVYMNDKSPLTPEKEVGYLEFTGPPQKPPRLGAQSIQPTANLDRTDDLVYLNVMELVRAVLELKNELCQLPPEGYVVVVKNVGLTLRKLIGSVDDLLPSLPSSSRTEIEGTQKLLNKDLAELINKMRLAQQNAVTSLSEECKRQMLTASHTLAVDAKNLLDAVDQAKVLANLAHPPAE
Sequence of SIK (h) (P57059 whole entry): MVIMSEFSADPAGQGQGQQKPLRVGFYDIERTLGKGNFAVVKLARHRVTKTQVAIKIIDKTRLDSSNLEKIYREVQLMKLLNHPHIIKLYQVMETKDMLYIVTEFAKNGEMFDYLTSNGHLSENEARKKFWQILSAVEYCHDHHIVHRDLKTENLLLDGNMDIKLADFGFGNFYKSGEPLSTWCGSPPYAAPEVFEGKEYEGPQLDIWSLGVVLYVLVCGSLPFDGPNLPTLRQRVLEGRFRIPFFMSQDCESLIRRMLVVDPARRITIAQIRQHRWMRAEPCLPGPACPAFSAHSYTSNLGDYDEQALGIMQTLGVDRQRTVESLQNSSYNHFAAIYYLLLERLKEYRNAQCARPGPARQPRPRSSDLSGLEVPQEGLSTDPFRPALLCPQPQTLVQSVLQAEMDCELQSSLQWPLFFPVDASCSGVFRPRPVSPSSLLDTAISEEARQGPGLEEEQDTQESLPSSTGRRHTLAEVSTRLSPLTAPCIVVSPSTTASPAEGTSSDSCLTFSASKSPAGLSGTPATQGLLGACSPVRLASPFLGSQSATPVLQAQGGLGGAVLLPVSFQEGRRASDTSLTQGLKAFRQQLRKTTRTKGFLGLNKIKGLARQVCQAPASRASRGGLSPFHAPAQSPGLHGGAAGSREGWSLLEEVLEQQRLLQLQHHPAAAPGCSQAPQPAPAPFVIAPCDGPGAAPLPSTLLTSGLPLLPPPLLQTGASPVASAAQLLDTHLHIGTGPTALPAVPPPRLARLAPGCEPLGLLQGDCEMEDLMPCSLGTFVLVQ
T2 sequence (P43250 whole entry): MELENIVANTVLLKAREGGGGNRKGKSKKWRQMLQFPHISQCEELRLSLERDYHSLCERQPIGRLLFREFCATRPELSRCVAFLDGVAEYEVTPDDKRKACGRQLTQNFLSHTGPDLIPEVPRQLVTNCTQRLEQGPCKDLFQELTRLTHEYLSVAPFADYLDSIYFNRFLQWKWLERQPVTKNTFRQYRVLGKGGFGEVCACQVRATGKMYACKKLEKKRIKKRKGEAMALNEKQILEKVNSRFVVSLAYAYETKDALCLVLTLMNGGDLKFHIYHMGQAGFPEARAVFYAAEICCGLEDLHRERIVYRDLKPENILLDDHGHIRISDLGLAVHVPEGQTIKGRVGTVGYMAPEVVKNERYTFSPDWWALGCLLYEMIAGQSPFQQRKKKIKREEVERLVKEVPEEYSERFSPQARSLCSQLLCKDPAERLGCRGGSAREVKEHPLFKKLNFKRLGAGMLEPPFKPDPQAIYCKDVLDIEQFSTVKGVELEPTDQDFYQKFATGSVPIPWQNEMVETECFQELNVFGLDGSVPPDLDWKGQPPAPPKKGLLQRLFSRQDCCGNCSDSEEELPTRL

FAKLAARLYRKALARQLGVAA [MMI-0300] was tested, and the “% activity” value (CDK6/cyclinD3 (h)) was 86%, the “% activity” value (Lyn (h)) was 69% and the “% activity” value (SIK (h)) was 66%. For the same sequence, the “% activity” value (GRK6 (h)) was 147%, the “% activity” value (TAK1 (h)) was 122% and the “% activity” value (PKCθ (h)) was 88%. For the same sequence, the “% activity” value (EphA7 (h)) was 159%, the “% activity” value (cKit(D816H) (h)) was 126% and the “% activity” value (Pyk2 (h)) was 47%. The “% activity” value (Txk (h)) was 48%, the “% activity” value (Ret (h)) was 140% and the “% activity” value (WNK2 (h)) was 64%. The “% activity” value (TrkA (h)) was 25%, the “% activity” value (TSSK2 (h)) was 98% and the “% activity” value (PKCδ (h)) was 101%.

For “HRRIKAWLKKIKALARQLGVAA (Mammalian) [MMI-0500]”, the “% activity” value (CDK6/cyclinD3 (h)) was 23%, the “% activity” value (Lyn (h)) was 31% and the “% activity” value (SIK (h)) was 40%. For the same sequence, the “% activity” value (GRK6 (h)) was 174%, the “% activity” value (PKCθ (h)) was 62% and the “% activity” value (EphA7 (h)) was 189%. For the same sequence, the “% activity” value (cKit(D816H) (h)) was 194%, the “% activity” value (Pyk2 (h)) was 46% and the “% activity” value (Txk (h)) was 10%. For the same sequence, the “% activity” value (Ret (h)) was 174%, the “% activity” value (WNK2 (h)) was 8% and the “% activity” value (TrkA (h)) was 24%. For the same sequence, the “% activity” value (TSSK2 (h)) was 92% and the “% activity” value (PKCδ (h)) was 61%.

For KAFAKLAARLYRKALARQLGVAA [MMI-0400], the “% activity” value (CDK6/cyclinD3 (h)) was 85%, the “% activity” value (Lyn (h)) was 3% and the “% activity” value (SIK (h)) was 68%. For the same sequence, the “% activity” value (GRK6 (h)) was 141%, the “% activity” value (TAK1 (h)) was 177% and the “% activity” value (PKCθ (h)) was 76%. The “% activity” value (EphA7 (h)) was 222%, the “% activity” value (cKit(D816H) (h)) was 143% and the “% activity” value (Pyk2 (h)) was 34%. For the same sequence, the “% activity” value (Txk (h)) was 37%, the “% activity” value (Ret (h)) was 145% and the “% activity” value (WNK2 (h)) was 54%. The “% activity” value (TrkA (h)) was 17%, the “% activity” value (TSSK2 (h)) was 94% and the “% activity” value (PKCδ (h)) was 90%.

For “YARAAARQARAKALNRQLGVA (Mammalian) [MMI-0200]”, the “% activity” value (CDK6/cyclinD3 (h)) was 100%, the “% activity” value (Lyn (h)) was 98% and the “% activity” value (GRK6 (h)) was 132%. For the same sequence, the “% activity” value (TAK1 (h)) was 124%, the “% activity” value (PKCθ (h)) was 101% and the “% activity” value (EphA7 (h)) was 220%. The “% activity” value (Pyk2 (h)) was 127%, the “% activity” value (Txk (h)) was 98% and the “% activity” value (Ret (h)) was 96%. The “% activity” value (WNK2 (h)) was 94%, the “% activity” value (TSSK2 (h)) was 91% and the “% activity” value (PKCδ (h)) was 101%.
